Among the targets are LIMK1, P53667; MAGI1_5, Q96QZ7; MAGI3_3, Q5TCQ9; MAGIX, Q9H6Y5; MAST3, O60307; NHERF2_1, Q15599; NHERF4_3, Q86UT5; RIMS1, Q86UR5; SCRIB_4, Q14160.
Assay in all cases: holdup assay
Common to all, as to design: key: below the threshold = too weak to quantify, mostly under pKd 3.1 to 4

Another test deals with CARD14, Q9BXL6. To be noted: plain residues with an end cap or a label only (N-terminal biotin on a linker: (peg)3).
The target in the next test is T1, CNKSR1, Q969H4.
T1 sequence (Q969H4 191-295, limits assumed, looked up): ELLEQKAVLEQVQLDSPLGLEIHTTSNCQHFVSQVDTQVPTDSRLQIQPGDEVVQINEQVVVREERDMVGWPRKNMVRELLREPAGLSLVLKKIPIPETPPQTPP
To be noted: plain residues with an end cap or a label only (N-terminal biotin on a linker: (peg)3).

In another test the target is T2, DVL1, O14640.
T2 sequence (O14640 246-333, limits assumed, looked up): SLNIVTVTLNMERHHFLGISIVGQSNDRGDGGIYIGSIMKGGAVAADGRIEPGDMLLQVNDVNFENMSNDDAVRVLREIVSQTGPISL
To be noted: plain residues with an end cap or a label only (N-terminal biotin on a linker: (peg)3).

The target in a further test is T3, GIPC1, O14908.
T3 sequence (O14908 128-223, limits assumed, looked up): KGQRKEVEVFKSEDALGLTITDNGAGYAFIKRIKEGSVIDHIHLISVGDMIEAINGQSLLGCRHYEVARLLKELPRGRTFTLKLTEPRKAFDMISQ
To be noted: plain residues with an end cap or a label only (N-terminal biotin on a linker: (peg)3).

For the next test, the target named is LNX1_4, Q8TBB1. To be noted: plain residues with an end cap or a label only (N-terminal biotin on a linker: (peg)3).
The target in a further test is T4, MPDZ_13, O75970.
T4 sequence (O75970 1982-2070, limits assumed, looked up): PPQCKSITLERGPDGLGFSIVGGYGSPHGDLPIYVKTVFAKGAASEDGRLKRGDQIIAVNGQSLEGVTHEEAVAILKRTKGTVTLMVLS

The target in the next test is T5, MPDZ_2, O75970.
T5 sequence (O75970 252-347, limits assumed, looked up): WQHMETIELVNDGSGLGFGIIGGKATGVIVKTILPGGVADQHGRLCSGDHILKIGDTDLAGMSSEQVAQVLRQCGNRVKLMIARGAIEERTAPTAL

For a further test, the target named is T6, NHERF3_2, Q5T2W1.
T6 sequence (Q5T2W1 129-225, limits assumed, looked up): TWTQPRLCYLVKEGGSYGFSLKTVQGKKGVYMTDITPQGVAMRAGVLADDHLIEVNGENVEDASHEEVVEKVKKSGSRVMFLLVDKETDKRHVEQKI

The target of the next test is T7, PDLIM3, Q53GG5.
T7 sequence (Q53GG5 1-94, limits assumed, looked up): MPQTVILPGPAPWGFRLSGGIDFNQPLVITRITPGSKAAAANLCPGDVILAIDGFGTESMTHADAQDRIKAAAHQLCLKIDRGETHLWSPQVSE

The next test addresses T8, PDZD7_2, Q9H5P4.
T8 sequence (Q9H5P4 205-303, limits assumed, looked up): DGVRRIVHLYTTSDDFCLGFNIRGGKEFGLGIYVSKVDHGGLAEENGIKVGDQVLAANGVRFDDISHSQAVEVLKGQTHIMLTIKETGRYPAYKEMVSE
To be noted: plain residues with an end cap or a label only (N-terminal biotin on a linker: (peg)3).

Another test concerns the target T9, PDZRN3_2, Q9UPQ7.
T9 sequence (Q9UPQ7 414-513, limits assumed, looked up): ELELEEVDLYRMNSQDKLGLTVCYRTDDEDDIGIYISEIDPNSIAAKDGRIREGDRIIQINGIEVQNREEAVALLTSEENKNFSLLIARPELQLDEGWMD
To be noted: plain residues with an end cap or a label only (N-terminal biotin on a linker: (peg)3).

A further test has as its target T10, PTPN13_5, Q12923.
T10 sequence (Q12923 1877-1975, limits assumed, looked up): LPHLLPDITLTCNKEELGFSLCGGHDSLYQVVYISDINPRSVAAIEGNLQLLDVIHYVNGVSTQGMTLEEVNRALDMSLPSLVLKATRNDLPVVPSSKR

The target of another test is T11, SHANK3, Q9BYB0.
T11 sequence (Q9BYB0 641-750, limits assumed, looked up): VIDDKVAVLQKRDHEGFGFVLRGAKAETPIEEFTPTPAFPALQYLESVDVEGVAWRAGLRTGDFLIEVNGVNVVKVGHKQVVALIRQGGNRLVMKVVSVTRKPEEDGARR

The next test has as its target T12, SIPA1L3, O60292.
T12 sequence (O60292 961-1052, limits assumed, looked up): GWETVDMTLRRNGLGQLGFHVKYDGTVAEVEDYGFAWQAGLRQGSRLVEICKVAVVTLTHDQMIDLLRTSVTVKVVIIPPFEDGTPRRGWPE

The target of another test is T13, USH1C_1, Q9Y6N9.
T13 sequence (Q9Y6N9 82-179, limits assumed, looked up): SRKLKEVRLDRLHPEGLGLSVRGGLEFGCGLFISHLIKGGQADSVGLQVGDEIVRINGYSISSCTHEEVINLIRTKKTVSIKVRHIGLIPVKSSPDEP

The mark [1] stands for this setting: plain residues with an end cap or a label only (N-terminal biotin on a linker: (peg)3).
Setting [2] is: modified: phospho on T at position -2 from the C-terminal residue.

Broadly, the pKd is the negative decadic logarithm of the Kd, by convention in mol/L.

MAGI1_5, Q96QZ7, sequence (Q96QZ7 986-1098): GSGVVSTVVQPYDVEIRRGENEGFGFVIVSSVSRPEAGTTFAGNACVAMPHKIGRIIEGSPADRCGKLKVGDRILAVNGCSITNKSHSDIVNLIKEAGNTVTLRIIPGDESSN
MAST3, O60307, sequence (O60307 945-1048): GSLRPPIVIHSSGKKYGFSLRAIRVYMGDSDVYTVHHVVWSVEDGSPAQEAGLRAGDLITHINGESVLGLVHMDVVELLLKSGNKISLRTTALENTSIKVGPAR
LIMK1, P53667, sequence (P53667 155-268): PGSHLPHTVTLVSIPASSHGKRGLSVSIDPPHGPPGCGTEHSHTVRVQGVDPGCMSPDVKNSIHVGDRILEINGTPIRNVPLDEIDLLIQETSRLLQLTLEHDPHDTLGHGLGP
SCRIB_4, Q14160, sequence (Q14160 1095-1204): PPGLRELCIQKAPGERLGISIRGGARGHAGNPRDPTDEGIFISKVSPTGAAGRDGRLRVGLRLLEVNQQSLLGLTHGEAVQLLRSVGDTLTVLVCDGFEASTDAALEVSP
RIMS1, Q86UR5, sequence (Q86UR5 584-692): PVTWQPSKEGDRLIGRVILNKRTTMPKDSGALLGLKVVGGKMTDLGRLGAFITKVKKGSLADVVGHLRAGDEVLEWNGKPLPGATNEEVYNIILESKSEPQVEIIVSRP
NHERF2_1, Q15599, sequence (Q15599 9-91): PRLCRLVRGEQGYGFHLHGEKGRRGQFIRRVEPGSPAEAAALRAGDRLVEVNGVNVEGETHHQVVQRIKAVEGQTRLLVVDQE
CARD14, Q9BXL6, sequence (Q9BXL6 558-663): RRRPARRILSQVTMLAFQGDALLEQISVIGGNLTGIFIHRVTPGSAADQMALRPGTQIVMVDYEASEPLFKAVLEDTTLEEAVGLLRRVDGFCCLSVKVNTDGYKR
LNX1_4, Q8TBB1, sequence (Q8TBB1 631-726): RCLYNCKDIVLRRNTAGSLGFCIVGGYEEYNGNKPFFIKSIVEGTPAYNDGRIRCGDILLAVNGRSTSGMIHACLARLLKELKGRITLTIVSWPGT
MAGIX, Q9H6Y5, sequence (Q9H6Y5 118-211): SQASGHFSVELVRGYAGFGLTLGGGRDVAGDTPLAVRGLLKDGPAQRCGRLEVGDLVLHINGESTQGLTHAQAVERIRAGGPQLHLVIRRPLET
NHERF4_3, Q86UT5, sequence (Q86UT5 325-412): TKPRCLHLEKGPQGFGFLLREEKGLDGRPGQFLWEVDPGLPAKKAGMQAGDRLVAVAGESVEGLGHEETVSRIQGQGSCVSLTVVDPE
MAGI3_3, Q5TCQ9, sequence (Q5TCQ9 572-655): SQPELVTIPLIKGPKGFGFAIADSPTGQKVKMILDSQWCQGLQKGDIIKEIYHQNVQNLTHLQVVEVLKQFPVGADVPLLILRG

In the case of RYEDTTLVEDTVL [WNV-NS5, Q9Q6P4], the negative-log Kd (pKd) entry is on record as “below the threshold” with CARD14, Q9BXL6; “below the threshold” in the test with CNKSR1, Q969H4; “below the threshold” with DVL1, O14640; “below the threshold” in the test with GIPC1, O14908; “below the threshold” with LIMK1, P53667 (setting [1]); “below the threshold” with LNX1_4, Q8TBB1. In addition, the pKd in the test with MAGI1_5, Q96QZ7 (setting [1]) was 3.84; with MAGI3_3, Q5TCQ9 (setting [1]), “below the threshold”; with MAGIX, Q9H6Y5 (setting [1]) it was “below the threshold”; in the test with MAST3, O60307 (setting [1]), “below the threshold”; with MPDZ_13, O75970 (setting [1]), “below the threshold”; with MPDZ_2, O75970 (setting [1]), “below the threshold”. For the same molecule, the pKd with NHERF2_1, Q15599 (setting [1]) was 4.19; in the test with NHERF3_2, Q5T2W1 (setting [1]) it was “below the threshold”; with NHERF4_3, Q86UT5 (setting [1]), “below the threshold”; with PDLIM3, Q53GG5 (setting [1]), “below the threshold”; with PDZD7_2, Q9H5P4 it was “below the threshold”; with PDZRN3_2, Q9UPQ7, “below the threshold”. Also, the pKd entry in the test with PTPN13_5, Q12923 (setting [1]) is “below the threshold”; with RIMS1, Q86UR5 (setting [1]), “below the threshold”; in the test with SCRIB_4, Q14160 (setting [1]) it was “below the threshold”; with SHANK3, Q9BYB0 (setting [1]) it was 4.59; with SIPA1L3, O60292 (setting [1]), “below the threshold”; with USH1C_1, Q9Y6N9 (setting [1]), “below the threshold”.
Consider QQSMSSADSTQA [SARS-Cov2-N, P0DTC9], for which the pKd result was “below the threshold” with CARD14, Q9BXL6; “below the threshold” with CNKSR1, Q969H4; “below the threshold” in the test with DVL1, O14640; 4.46 with GIPC1, O14908; “below the threshold” with LIMK1, P53667 (setting [1]); “below the threshold” with LNX1_4, Q8TBB1. Further, the negative-log Kd (pKd) result is “below the threshold” in the test with MAGI1_5, Q96QZ7 (setting [1]); 3.78 in the test with MAGI3_3, Q5TCQ9 (setting [1]); “below the threshold” with MAGIX, Q9H6Y5 (setting [1]); “below the threshold” with MAST3, O60307 (setting [1]); “below the threshold” in the test with MPDZ_13, O75970 (setting [1]); “below the threshold” with MPDZ_2, O75970 (setting [1]). The pKd result was “below the threshold” with NHERF2_1, Q15599 (setting [1]); “below the threshold” in the test with NHERF3_2, Q5T2W1 (setting [1]); “below the threshold” in the test with NHERF4_3, Q86UT5 (setting [1]); “below the threshold” in the test with PDLIM3, Q53GG5 (setting [1]); “below the threshold” with PDZD7_2, Q9H5P4; “below the threshold” in the test with PDZRN3_2, Q9UPQ7. The pKd entry was “below the threshold” with PTPN13_5, Q12923 (setting [1]); “below the threshold” in the test with RIMS1, Q86UR5 (setting [1]); “below the threshold” in the test with SCRIB_4, Q14160 (setting [1]); “below the threshold” with SHANK3, Q9BYB0 (setting [1]); “below the threshold” with SIPA1L3, O60292 (setting [1]); “below the threshold” with USH1C_1, Q9Y6N9 (setting [1]).
As for RRRRSQSRESQC [HBV-HBc, P03193], the pKd entry with CARD14, Q9BXL6 was “below the threshold”; with CNKSR1, Q969H4, 3.9; with DVL1, O14640, “below the threshold”; with GIPC1, O14908, 5.58; with LIMK1, P53667 (setting [1]), “below the threshold”; with LNX1_4, Q8TBB1, “below the threshold”. Also, the negative-log Kd (pKd) entry in the test with MAGI1_5, Q96QZ7 (setting [1]) is recorded as “below the threshold”; with MAGI3_3, Q5TCQ9 (setting [1]) it was “below the threshold”; in the test with MAGIX, Q9H6Y5 (setting [1]), “below the threshold”; with MAST3, O60307 (setting [1]) it was “below the threshold”; with MPDZ_13, O75970 (setting [1]), “below the threshold”; with MPDZ_2, O75970 (setting [1]), “below the threshold”. The pKd entry with NHERF2_1, Q15599 (setting [1]) is “below the threshold”; with NHERF3_2, Q5T2W1 (setting [1]) it was “below the threshold”; in the test with NHERF4_3, Q86UT5 (setting [1]), “below the threshold”; with PDLIM3, Q53GG5 (setting [1]), 4.1; with PDZD7_2, Q9H5P4, “below the threshold”; with PDZRN3_2, Q9UPQ7, “below the threshold”. The negative-log Kd (pKd) entry was “below the threshold” in the test with PTPN13_5, Q12923 (setting [1]); “below the threshold” with RIMS1, Q86UR5 (setting [1]); “below the threshold” with SCRIB_4, Q14160 (setting [1]); “below the threshold” in the test with SHANK3, Q9BYB0 (setting [1]); 3.96 with SIPA1L3, O60292 (setting [1]); “below the threshold” with USH1C_1, Q9Y6N9 (setting [1]).
With SSRTRRETQL [HPV16-E6_-2P, P03126], the negative logarithm of the Kd (pKd) entry with LIMK1, P53667 (setting [2]) was “below the threshold”; with MAGI1_5, Q96QZ7 (setting [2]) it was “below the threshold”; with MAGI3_3, Q5TCQ9 (setting [2]) it was “below the threshold”; with MAGIX, Q9H6Y5 (setting [2]) it was “below the threshold”; with MAST3, O60307 (setting [2]) it was “below the threshold”; with MPDZ_13, O75970 (setting [2]), “below the threshold”. Further, the negative logarithm of the Kd (pKd) result with MPDZ_2, O75970 (setting [2]) was “below the threshold”; in the test with NHERF2_1, Q15599 (setting [2]), “below the threshold”; with NHERF3_2, Q5T2W1 (setting [2]), “below the threshold”; with NHERF4_3, Q86UT5 (setting [2]), “below the threshold”; with PDLIM3, Q53GG5 (setting [2]), “below the threshold”; in the test with PTPN13_5, Q12923 (setting [2]) it was “below the threshold”. The pKd entry with RIMS1, Q86UR5 (setting [2]) was “below the threshold”; with SCRIB_4, Q14160 (setting [2]), “below the threshold”; in the test with SHANK3, Q9BYB0 (setting [2]) it was “below the threshold”; with SIPA1L3, O60292 (setting [2]) it was “below the threshold”; with USH1C_1, Q9Y6N9 (setting [2]), “below the threshold”.

The values above are taken from article PMC9482650, “Quantitative fragmentomics allow affinity mapping of interactomes” (Nature Communications, 2022).
